Series [1] concerns His-PIPKIγ661 C-terminus, wild-type (439-661).
Series [2] deals with His-PIPKIγ661 C-terminus (439-661) Tyr649 to Phe mutant.
Series [3] has as its system His-PIPKIγ661 C-terminus (439-661) Tyr644/649 to Phe mutant.
Series [4] deals with His-PIPKIγ661 C-terminus (439-661) Tyr644 to Phe mutant.
Chain of His-PIPKIγ661 C-terminus (439-661) Tyr644 to Phe mutant (chain, as listed by the source mutant): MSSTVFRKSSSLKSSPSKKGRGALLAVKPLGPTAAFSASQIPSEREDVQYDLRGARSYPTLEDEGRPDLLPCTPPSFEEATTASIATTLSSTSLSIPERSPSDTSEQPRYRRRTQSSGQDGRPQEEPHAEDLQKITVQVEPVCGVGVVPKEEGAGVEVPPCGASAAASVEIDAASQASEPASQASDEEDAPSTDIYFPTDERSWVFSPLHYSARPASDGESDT

Chain of His-PIPKIγ661 C-terminus (439-661) Tyr644/649 to Phe mutant (chain, as listed by the source mutant): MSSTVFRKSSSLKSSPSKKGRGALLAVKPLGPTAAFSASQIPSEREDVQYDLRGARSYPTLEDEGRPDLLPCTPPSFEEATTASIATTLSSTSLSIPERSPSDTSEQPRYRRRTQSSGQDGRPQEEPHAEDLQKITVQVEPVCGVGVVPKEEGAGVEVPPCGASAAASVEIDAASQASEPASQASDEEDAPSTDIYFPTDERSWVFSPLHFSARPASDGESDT
Chain of His-PIPKIγ661 C-terminus (439-661) Tyr649 to Phe mutant (chain, as listed by the source mutant): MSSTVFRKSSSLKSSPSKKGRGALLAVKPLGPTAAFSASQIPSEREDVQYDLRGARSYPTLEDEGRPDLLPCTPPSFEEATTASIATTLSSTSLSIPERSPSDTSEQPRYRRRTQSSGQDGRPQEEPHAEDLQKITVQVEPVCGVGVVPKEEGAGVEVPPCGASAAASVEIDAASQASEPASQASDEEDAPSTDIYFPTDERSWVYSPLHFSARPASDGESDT
Chain of His-PIPKIγ661 C-terminus, wild-type (439-661) (chain, as listed by the source): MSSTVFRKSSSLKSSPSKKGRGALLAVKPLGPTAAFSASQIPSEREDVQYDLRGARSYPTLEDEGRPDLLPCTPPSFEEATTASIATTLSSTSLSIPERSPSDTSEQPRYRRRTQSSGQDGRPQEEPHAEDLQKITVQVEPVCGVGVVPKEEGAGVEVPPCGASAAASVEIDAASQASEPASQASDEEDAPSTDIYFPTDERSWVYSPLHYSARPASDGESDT

c-SrcTyr527Phe: the “in vitro kinase assay, phosphorylation of the recombinant substrate” value in series [1] is given as “c-Src directly phosphorylated recombinant PIPKIγ661 tail”; in series [2], “PIPKIγTyr^649->Phe is efficiently phosphorylated by c-Src”; in series [3], “not efficiently phosphorylated by c-Src in vitro compared with wild-type”; in series [4], “not efficiently phosphorylated by c-Src in vitro compared with wild-type”.
